# The supplement of paper PMC9170038
# Key:
# [1] = tested on: MS2 coat protein; experiment: apparent KD of MS2 coat protein, switch ON state; designed switch direction (-1 OFF switch, 1 ON switch): -1; higher = weaker reporter binding; details: FMN input: 0 or 200 uM; Eterna round: R93 (includes R88 designs)
# In short: (§1)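 For every design, apparent KD is the median of normalised binding-curve fits from its clusters. The RNA switches were transcribed on-chip from Illumina sequencing clusters and titrated with SNAP-549-labelled MS2 coat protein (twofold steps, 0.7 or 1.5 nM to 3 µM; 0.8–1.5 h to 10–20 min per step). Titrations used 100 mM Tris-HCl pH 7.5, 80 mM KCl, 4 mM MgCl2, without or with constant ligand.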
# [2] = tested on: MS2 coat protein; experiment: apparent KD of MS2 coat protein, switch OFF state (with FMN for OFF switches, without FMN for ON switches); designed switch direction (-1 OFF switch, 1 ON switch): -1; higher = weaker reporter binding; details: FMN input: 0 or 200 uM; Eterna round: R93 (includes R88 designs)
# In short: as §1
Sequence,apparent KD of MS2 coat protein [1],apparent KD of MS2 coat protein [2]
AAAAAGUCAGGAUAUGCACAAAAAAAAAUAAAAAAAAAAGUGCAGAAGGGACAUGAGGAUCACCCAUGUAAGAU [Mat - Exclusion 4 - Mayanna - D118],0.081 µM,0.0772 µM
AAAAAGUCAGGAUAUGCAGACAAAGCAAAAAAGCAAUGUCUGCAGAAGGGACAUGAGGAUCACCCAUGUAAAAA [Ex 4 May 9],0.0577 µM,0.0446 µM
AAAAAGUCAGGAUAUGUCAAAGGUCACGAAAGUGACAAAGGACAGAAGGGACAUGAGGAUCACCCAUGUAAAAA [Fiskers Exclusion 4 D1],0.0535 µM,0.0495 µM
AAAAAGUGAGGAUAUGCAGUGGCCUGUAGACGCGAGCACUUGUAGAAGGCACAUGAGGAUCACCCAUGUUUAAA [EX4 Malc#29],0.0213 µM,0.0205 µM
AAAAAGUGAGGAUAUGCGCUGUCAUGUAGACACGAGCAGUCGUAGAAGGCACAUGAGGAUCACCCAUGUUUAAA [EX4 Malc#24],0.0319 µM,0.02 µM
AAAAAGUGAGGAUAUGGAAAAAAAAAAAAAAAAAAAAAAAACCAGAAGGCACAUGAGGAUCACCCAUGUAAAAA [exclusive 2],0.0386 µM,0.0309 µM
AAAAAGUGAGGAUAUGGAAAAAAAAAAAAAAAAAAAAAAAACCAGAAGGCACAUGAGGAUCACCCAUGUAAAAA [low kcal],0.0386 µM,0.0309 µM
AAAAAGUGAGGAUAUGUCAAAGGUCACGAAAGUGACAAAGGACAGAAGGCACAUGAGGAUCACCCAUGUGGGAA [Fiskers Exclusion 4D1 65% - Early + late G segment 1],0.0674 µM,0.0776 µM
AAAAAGUGAGGAUAUUCGGAUAGGAAAACGAAAACCUAUCCGAAGAAGGCACAUGAGGAUCACCCAUGUGAAAG [Mat - Exaclusion 4 - Eli mod - D42],0.028 µM,0.0294 µM
AAAAAUCGAGGAUAUACAUGAGGAUCACCCAUGUUGGAAAACGAUUACACAAAAGAAAGUAGAAGGCGAUAAAA [Ex 3 May 21],0.0165 µM,0.0247 µM
AAAAAUGGAGGAUAUACAUGAGGAUCACCCAUGUGUAUAAAAAAAUACACAAAAGAAAGUAGAAGGCCAUAAAA [Ex 3 Ice],0.035 µM,0.0943 µM
AAAAAUGGAGGAUAUACGUACAUGUCAAAAGACGUGAAGGGACAUGAGGAUCACCCAUGUAGAAGGCUAAAAAA [JL Stem Breaker 7],0.0801 µM,0.0295 µM
AAAAAUUGAGGAUAUACGAACAUGUCAAAAGACGUGAAGGGACAUGAGGAUCACCCAUGUAGAAGGCGAAAGAA [JL Loop Breaker 1],0.0451 µM,0.0199 µM
AAAACACAUGAGGAUCACCCAUGUUAGGAUAUCCACGCUACUAAUCCUAAACAAAGCGGGAGAAGGAACGUGGC [Xerereonan],0.0209 µM,0.0175 µM
AAAACGUGAGGAUAUGCACCAAAAAAGGUAAAUCGGGUACGACAUGAGGAUCACCCAUGUAGAAGGCACGAAAA [Frodo Flailing 11 - Jieux - Exclusion 2],0.0282 µM,0.0429 µM
AAAACGUGAGGAUAUGCACCAAAAAAGGUAAUUCGGGUACGACAUGAGGAUCACCCAUGUAGAAGGCACGAAAA [Frodo Flailing 12 - Jieux - Exclusion 2],0.0299 µM,0.0287 µM
AAAAGACAUGAGGAUCACCCAUGUAAGGAUAUGCAGAGAGCAAAACAAAAAAAAAAAAGCAGAAGGUACAUAAA [Design2],0.0554 µM,0.0651 µM
AAAAGACAUGAGGAUCACCCAUGUGAGGAUAUCGGAAAAGGAAAAAAAAAAAAGAAGACGAGAAGGCACACCAA,0.0425 µM,0.0338 µM
AAAAGACAUGAGGAUCACCCAUGUGAGGAUAUGCAAAACCCAUAUAAAAAGGGAAAAAGCAGAAGGUACAAAAA [wbt round 1 mod 13],0.0296 µM,0.0405 µM
AAAAGCAAAGGAUAUACAUGAGGAUCACCCAUGUAAAAAAGAAAAGAGUAUAUGGCAUGUAGAAGGUUGCGUGG [Rabisoxe],0.0262 µM,0.0549 µM
AAAAGUACAGGAUAUACAUGAGGAUCACCCAUGUAGAAAGGAAGUGUAAAAAAAAAGUGUAGAAGGGUGCAUGA [MS2 Riboswitches On Chip Exclusion 3 wbt1],0.0225 µM,0.0212 µM
"AAACCACAUGAGGAUCACCCAUGUCAGGAUAUGCAAACAACAAACAACAAACAACAAAGCAGAAGGGACAACAA [63%, Olong, 2]",0.0138 µM,0.018 µM
AAACGUACAGGAUAUACGAAAAGAUUACGAAAGUAAUCGGGACAUGAGGAUCACCCAUGUAGAAGGGUACGAAA [Mod2 of Meechl 64% 4],0.048 µM,0.0617 µM

Sequence,apparent KD of MS2 coat protein [1],apparent KD of MS2 coat protein [2]
AAACGUUGAGGAUAUACAGAAGGGUAUAAAUCAAAAAAAACACAUGAGGAUCACCCAUGUAGAAGGCAACGAAA,0.0989 µM,0.0504 µM
AAAGGACAUGAGGAUCACCCAUGUGAGGAUAUCGGAAAAGGAAAAAUAAAAAAGAAGACGAGAAGGCACACCAA [Mat - Exclusion 1 - Eli mod - D76],0.0806 µM,0.0598 µM
AAAGGACGAGGAUAUACAUGAGGAUCACCCAUGUAAAAAACAUAGUAAAAGGGCUUGUGUAGAAGGCGUCCAAA [Meechl Ex3 2 R2 v10],0.173 µM,0.0356 µM
AAAGGACGAGGAUAUACAUGAGGAUCACCCAUGUAAAAAGCAUAAUAAAAUAACUUAUGUAGAAGGCGUCCAAA [Mat - Exclusion 3 - Eli mod - D91],0.022 µM,0.102 µM
"AAAGGACUAGGAUAUACAUGAGGAUCACCCAUGUAAAAAACAUAAUAAAAGAACUUAUGUAGAAGGAGUCCAAA [69%, Moding Meechl, 9]",0.0317 µM,0.0937 µM
AAAGGGCGAGGAUAUACAUGAGGAUCACCCAUGUAAAAAACAUAAUAAAAGAACUUAUGUAGAAGGCGUCCAAA [Meechl Ex3 2 R2 v2],0.0528 µM,0.321 µM
AAAGUGUGAGGAUAUGUCAAAGGACACGAAAGUGACAAAGGACAGAAGGUACAUGAGGAUCACCCAUGUAAAAA [milkweed 18],0.0273 µM,0.0206 µM
AAAUACUAAGGAUAUACAUGAGGAUCACCCAUGUACAAACCCGUGGAACGGAUCGUUAGUAGAAGGUGGACAAA [Zaanrion],0.0156 µM,0.0154 µM
AAAUCAGUAGGAUAUACGAUUUUAUGCUAGAUAGAGGAACCACAUGAGGAUCACCCAUGUAGAAGGACUAGAUA [EX2 Malc#24],0.0145 µM,0.0164 µM
AAAUGAUGAGGAUAUACAUGAGGAUCACCCAUGUGUAAAAAUAAAUACACAAAAGAAAGUAGAAGGCAUCAAAG [Mat - Exclusion 3 - Mayanna mod - D119],0.0278 µM,0.0886 µM
AAAUGCUGAGGAUAUACAUGAGGAUCACCCAUGUAAAAUAAAUAAAGGGUGUAAACGUGUAGAAGGCAGCAUAA [Exclusion 3.14e (FMN+ favored )],0.0394 µM,0.0326 µM
AACAAACAUGAGGAUCACCCAUGUCAGGAUAUCCGAAAUAAAGAAACAAUAAUAAUAAGGAGAAGGGACUAAAU [Ex1 sub 2],0.0355 µM,0.0341 µM
AACAAACAUGAGGAUCACCCAUGUCAGGAUAUGCAUAAAUAAAUAAAUAAAUAAAUAAGCAGAAGGGACACAAC [Amethyst 90],0.0451 µM,0.0533 µM
AACAAACAUGAGGAUCACCCAUGUGAGGAUAUCGGAUGUACAGCGCAAUUAGAAUUAACGAGAAGGCACACUUA [Ex1_Neo],0.0227 µM,0.0226 µM
AACAAGGCAGGAUAUACAUGAGGAUCACCCAUGUGAGAAUUAAGUGGCGUAACACAAAGUAGAAGGGCCAUGGA [Ruby 5],0.0395 µM,0.0499 µM
AACAAGUCAGGAUAUCCGAAAAGUAAAUAAGUAAAACAAAAGGAGAAGGGACAUGAGGAUCACCCAUGUAAAUA [JR_Exc004_Sub015],0.0481 µM,0.0272 µM
AACAAGUGAGGAUAUCGGAAAUGUAAAUAAGUUUCACAAAACGAGAAGGCACAUGAGGAUCACCCAUGUAAAUA [JR_Exc004_Sub013],0.0321 µM,0.0256 µM
AACAGAACAGGAUAUACAUGAGGAUCACCCAUGUCACAACAAAGCAGCGCAACACAAAGUAGAAGGGUUAUGGA [Ruby 14],0.0318 µM,0.0409 µM
AACAGGACAGGAUAUACAUGAGGAUCACCCAUGUGAGAAUUAAGUGGCGUACCACAAAGUAGAAGGGUCCUGGA [Mat - Exclusion 3 - JL mod - D40],0.0445 µM,0.216 µM
AACAGGUCAGGAUAUGUGGAAAAAAUAAAAAAAAUAAAAACACAGAAGGGACAUGAGGAUCACCCAUGUAUAUA [May 21],0.0894 µM,0.0534 µM
AACAGUACAGGAUAUACAUGAGGAUCACCCAUGUAAAAAUAAAAGGGCGUACCACAAAGUAGAAGGGUACUGGA [Moding Maslow revisited (73) 12],0.0447 µM,0.034 µM
AACAGUACAGGAUAUACAUGAGGAUCACCCAUGUAAAAUAAAUAAAAAUAAAAGGGAAGUAGAAGGGUACUGGA [Moding Maslow revisited (73) 17],0.0316 µM,0.0465 µM
